From PMC9072312 (2022)

Assays:
Experiment in all cases: MST
[1] = target: T1, NT-Als7-Ig (N′-terminal domain of C. albicans Als7 fused to the Fc domain of human IgG1) (C. albicans, UniProt Q5A312 19-329)
T1 chain: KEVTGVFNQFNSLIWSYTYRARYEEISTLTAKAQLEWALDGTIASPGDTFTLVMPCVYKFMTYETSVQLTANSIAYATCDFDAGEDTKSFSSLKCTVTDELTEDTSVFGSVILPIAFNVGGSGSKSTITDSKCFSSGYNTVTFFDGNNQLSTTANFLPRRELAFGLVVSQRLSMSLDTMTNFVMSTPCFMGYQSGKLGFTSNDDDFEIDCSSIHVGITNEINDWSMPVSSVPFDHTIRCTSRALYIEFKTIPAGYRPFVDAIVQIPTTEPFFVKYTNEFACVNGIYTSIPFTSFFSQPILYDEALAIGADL

[2] = target: T2, PVR-Ig (extracellular portion of human PVR fused to the Fc domain of human IgG1) (human, UniProt P15151 21-343)
T2 chain: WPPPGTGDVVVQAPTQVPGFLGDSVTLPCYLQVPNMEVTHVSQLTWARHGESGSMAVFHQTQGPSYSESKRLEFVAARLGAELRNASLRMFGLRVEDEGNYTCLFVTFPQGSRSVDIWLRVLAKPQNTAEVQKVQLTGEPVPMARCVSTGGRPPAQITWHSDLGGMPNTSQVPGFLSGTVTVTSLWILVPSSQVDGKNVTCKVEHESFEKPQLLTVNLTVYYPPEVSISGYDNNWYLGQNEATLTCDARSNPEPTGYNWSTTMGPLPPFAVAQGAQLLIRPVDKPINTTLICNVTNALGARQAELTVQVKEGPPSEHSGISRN

[3] = target: NT-Als9-2-Ig (N′-terminal domain of C. albicans Als9, allele Als9-2, fused to the Fc domain of human IgG1) (C. albicans)
[4] = target: T3, NT-Als6-Ig (N′-terminal domain of C. albicans Als6 fused to the Fc domain of human IgG1) (C. albicans, UniProt Q5A2Z7 19-329)
T3 chain: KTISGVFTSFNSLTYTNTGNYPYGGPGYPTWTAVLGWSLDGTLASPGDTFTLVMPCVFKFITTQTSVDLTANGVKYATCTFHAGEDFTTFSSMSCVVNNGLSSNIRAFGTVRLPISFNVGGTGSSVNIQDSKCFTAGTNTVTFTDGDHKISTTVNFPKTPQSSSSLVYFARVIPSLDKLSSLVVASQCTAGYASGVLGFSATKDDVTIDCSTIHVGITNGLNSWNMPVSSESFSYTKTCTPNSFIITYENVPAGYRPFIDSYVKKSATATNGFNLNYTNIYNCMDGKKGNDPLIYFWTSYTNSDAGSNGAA

B1: TIGIT-Ig (extracellular ligand-binding domain of human TIGIT fused to the Fc domain of human IgG1) (Fc fusion)
chain: MMTGTIETTGNISAEKGGSIILQCHLSSTTAQVTQVNWEQQDQLLAICNADLGWHISPSFKDRVAPGPGLGLTLQSLTVNDTGEYFCIYHTYPDGTYTGRIFLEVLESSVAEHGARFQIP
modifications: fluorescently labeled with the Monolith NT Protein Labeling Kit RED-NHS
[1]
  Kd: 42 nM
[2]
  Kd: 49 nM
[3]
  Kd: 455 nM
[4]
  Kd: 6 nM
